# Test results as given in US20250034212A1, “PEPTIDE” (PEPTIDREAM INC., priority 2021, published 2025).
# Read-outs that look alike come from different tables or passages of the source. Starred links: 1 amine or outer side, 2 acyl side, 3 side chain; linkers in the order of their positions; H or OH if unused. Positions of bridges follow the written chain, without caps; N, C: chain ends. Non-standard residues stand in square brackets, D forms with d. No end group written: not given here. *: point of attachment. HA‑tag = HA-tag attached to the G end of the C-terminal linker, CC(C)[C@H](NC(=O)[C@H](CC(=O)O)NC(=O)[C@H](Cc1ccc(O)cc1)NC(=O)[C@@H]1CCCN1C(=O)[C@H](Cc1ccc(O)cc1)N*)C(=O)N1CCC[C@H]1C(=O)N[C@@H](CC(=O)O)C(=O)N[C@@H](Cc1ccc(O)cc1)C(=O)N[C@@H](C)C(=O)O; KCOpipzaa = N6-(4-(carboxymethyl)piperazine-1-carbonyl)-L-lysine, O=C(NCCCC[C@H](N[*:1])C(=O)[*:2])N1CCN(CC(=O)[*:3])CC1; Phe(3-guanidino) = 3-[(aminoiminomethyl)amino]-L-phenylalanine, N=C(N)Nc1cccc(C[C@H](N[*:1])C(=O)[*:2])c1; CH3O(CH2CH2O)7C2H4CO = COCCOCCOCCOCCOCCOCCOCCOCCC(=O)*; Phe(4-guanidino) = N=C(N)Nc1ccc(C[C@H](N)C(=O)O)cc1; Trp(6-aza) = N[C@@H](Cc1c[nH]c2cnccc12)C(=O)O; Trp(7-aza) = N[C@@H](Cc1c[nH]c2ncccc12)C(=O)O; 1Nal = N[C@@H](Cc1cccc2ccccc12)C(=O)O; Gly(NCH2CH2Ph) = O=C(O)CNCCc1ccccc1; 3Pal = N[C@@H](Cc1cccnc1)C(=O)O; 4Pal = N[C@@H](Cc1ccncc1)C(=O)O
# What was measured:
# recombinant human TGF-β1 = target: T1, recombinant human TGF-β1 (Homo sapiens, UniProt P01137); experiment: ELISA of HA-tagged peptides with TGF-β1 beads; type: binding; details: for Activity of binding to TGF-β: relative value with binding of peptide TGFb1_061 (SEQ ID NO: 62) to TGF-β1 set to 100%, HA-tagged peptides, TGF-β1 beads ELISA
# T1 construct: purchased R&D systems
# T1 sequence (P01137 279-390 limits assumed): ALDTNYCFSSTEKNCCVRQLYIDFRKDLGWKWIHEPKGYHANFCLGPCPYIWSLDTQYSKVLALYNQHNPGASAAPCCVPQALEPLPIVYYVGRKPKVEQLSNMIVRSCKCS
# From the text: In this Example, ELISA was used to evaluate the binding between TGF-β1 and each of various peptides consisting of the amino acid sequences set forth in SEQ ID NOs: 34-69 synthesized in Examples 6 and 7. An HA-tag was attached to the G end of the C-terminal linker of the peptide consisting of the amino acid sequence set forth in SEQ ID NOs: 34-69. As used herein, the “HA-tag” means the amino acid sequence of PEG10[…] (SEQ ID NO: 70).
# The binding activity of each peptide to TGF-β1 was examined by ELISA using the peptide consisting of the amino acid sequence set forth in SEQ ID NOs: 34-69 having an HA-tag attached and TGF-β1 beads.
# Recombinant human TGF-β1 (R&D Systems) was immobilized on Dynabead M-270 Carboxylic Acid (Thermo fisher scientific) to prepare TGF-β1 beads. The immobilization reaction was performed using the Amine Coupling kit (DOJINDO LABORATORIES).
# TGF-β1 beads and each peptide having the HA-tag sequence attached at the C-terminus were reacted in PBS (PBS-T) containing 0.1% Tween 20 (NACALAI TESQUE, INC.) for 1 hour and then washed by PBS-T. To detect the peptide bound to the TGF-β1 beads, an anti-HA-tag mAb-HRP-DirecT (MBL) and the TGF-β1 beads were reacted in PBS-T containing 1% BSA for 30 min. After washing with PBST, a SureBlue TMB Microwell Peroxidase Substrate (Kirkegaard & Perry Laboratories) was added for coloration for 10 min. TMB stop solution (Kirkegaard & Perry Laboratories) was then added to stop the coloration reaction. An EnSpire (Perkin Elmer) was used to measure absorbance.
# Note that the binding activity was expressed as a relative value when the ability of binding the peptide TGFb1_061 (SEQ ID NO: 62) to TGF-β1 was set to 100%.
# [1] = target: T2, recombinant human TGF-β1 (R&D systems) (human, UniProt P01137 279-390); experiment: cell-based or functional assay
# T2 sequence (P01137 279-390 limits assumed): as above
# [2] = target: T2, recombinant human TGF-β1 (R&D systems); experiment: cell-based or functional assay; remark: listed apart in the source
Molecule,Activity of binding to TGF-β (recombinant human TGF-β1) [%],further results
53 ({CH2CO}-F[1Nal]VVNVYDDKV[1Nal]YHVCG; thioether N-16; also: HA-tag) [compound 53],86,–
63 ({CH2CO}-F[1Nal]VVNVKDD[Gly(NCH2CH2Ph)]V[1Nal]YHVCG; thioether N-16; also: HA-tag) [compound 63],102,–
64 ({CH2CO}-F[1Nal]VVNVYDK[Gly(NCH2CH2Ph)]V[1Nal]YHVCG; thioether N-16; also: HA-tag) [compound 64],102,–
50 ({CH2CO}-F[1Nal]VVNVYDD[Gly(NCH2CH2Ph)]V[1Nal]YHQCG; thioether N-16; also: HA-tag) [compound 50],81,–
51 ({CH2CO}-F[1Nal]VKNVYDD[Gly(NCH2CH2Ph)]V[1Nal]YHVCG; thioether N-16; also: HA-tag) [compound 51],84,–
55 ({CH2CO}-F[1Nal]VVNVYDD[Gly(NCH2CH2Ph)]V[1Nal]YHECG; thioether N-16; also: HA-tag) [compound 55],89,–
61 ({CH2CO}-F[1Nal]VVNVYKD[Gly(NCH2CH2Ph)]V[1Nal]YHVCG; thioether N-16; also: HA-tag) [compound 61],98,–
58 ({CH2CO}-F[1Nal]VVNVYED[Gly(NCH2CH2Ph)]V[1Nal]YHVCG; thioether N-16; also: HA-tag) [compound 58],93,–
48 ({CH2CO}-F[1Nal]VVNVEDD[Gly(NCH2CH2Ph)]V[1Nal]YHVCG; thioether N-16; also: HA-tag) [compound 48],80,–
62 ({CH2CO}-F[1Nal]VVNVYDD[Gly(NCH2CH2Ph)]V[1Nal]YHVCG; thioether N-16; also: HA-tag) [compound 62],100,–
49 ({CH2CO}-F[1Nal]VVNVYDD[Gly(NCH2CH2Ph)]V[1Nal][4Pal]HVCG; thioether N-16; also: HA-tag) [compound 49],80,–
57 ({CH2CO}-F[1Nal]VVNVQDD[Gly(NCH2CH2Ph)]V[1Nal]YHVCG; thioether N-16; also: HA-tag) [compound 57],90,–
59 ({CH2CO}-F[1Nal]VVNVYDD[Gly(NCH2CH2Ph)]V[1Nal][3Pal]HVCG; thioether N-16; also: HA-tag) [compound 59],95,–
TGFb1_061: cyclic peptide of Table 4 with G linker and HA-tag; ELISA reference set to 100% ({CH2CO}-F[1Nal]VVNVYDD[Gly(NCH2CH2Ph)]V[1Nal]YHVCG-{HA‑tag}; thioether N-16),–,"activity of binding to TGF-β, relative value (recombinant human TGF-β1; ELISA, relative to TGFb1_061 (SEQ ID NO: 62) set to 100%, HA-tag attached): 100%"
60 ({CH2CO}-F[1Nal]VVNVYDQ[Gly(NCH2CH2Ph)]V[1Nal]YHVCG; thioether N-16; also: HA-tag) [compound 60],95,–
67 ({CH2CO}-F[1Nal]VVNVYDE[Gly(NCH2CH2Ph)]V[1Nal]YHVCG; thioether N-16; also: HA-tag) [compound 67],116,–
"{CH2CO}-F[1Nal]VVNV[4Pal]DD[Gly(NCH2CH2Ph)]V[1Nal]YH[KCOpipzaa]CGK(CH3O(CH2CH2O)7C2H4CO)-NH2 (thioether N-16; SMILES COCCOCCOCCOCCOCCOCCOCCOCCC(=O)NCCCC[C@H](NC(=O)CNC(=O)[C@@H]1CSCC(=O)N[C@@H](Cc2ccccc2)C(=O)N[C@@H](Cc2cccc3ccccc23)C(=O)N[C@@H](C(C)C)C(=O)N[C@@H](C(C)C)C(=O)N[C@@H](CC(N)=O)C(=O)N[C@@H](C(C)C)C(=O)N[C@@H](Cc2ccncc2)C(=O)N[C@@H](CC(=O)O)C(=O)N[C@@H](CC(=O)O)C(=O)N(CCc2ccccc2)CC(=O)N[C@@H](C(C)C)C(=O)N[C@@H](Cc2cccc3ccccc23)C(=O)N[C@@H](Cc2ccc(O)cc2)C(=O)N[C@@H](Cc2c[nH]cn2)C(=O)N[C@@H](CCCCNC(=O)N2CCN(CC(=O)O)CC2)C(=O)N1)C(N)=O, cyclic peptide; linker G K(MePEG8c) at the C-terminus) [TGFb1_031]",–,"SBE reporter % inhibition, peptide 0.062 nM [1]: 9.29%; SBE reporter % inhibition, peptide 0.185 nM [1]: 20.1%; SBE reporter % inhibition, peptide 0.56 nM [1]: 51.9%; SBE reporter % inhibition, peptide 1.7 nM [1]: 84.9%; SBE reporter % inhibition, peptide 5.0 nM [1]: 96.7%; SBE reporter % inhibition, peptide 15.0 nM [1]: 99.1%"
{CH2CO}-F[1Nal]VVNV[4Pal]D[KCOpipzaa][Gly(NCH2CH2Ph)]V[1Nal]YH[KCOpipzaa]CG-NH2 (thioether N-16; SMILES CC(C)[C@@H]1NC(=O)CN(CCc2ccccc2)C(=O)[C@H](CCCCNC(=O)N2CCN(CC(=O)O)CC2)NC(=O)[C@H](CC(=O)O)NC(=O)[C@H](Cc2ccncc2)NC(=O)[C@H](C(C)C)NC(=O)[C@H](CC(N)=O)NC(=O)[C@H](C(C)C)NC(=O)[C@H](C(C)C)NC(=O)[C@H](Cc2cccc3ccccc23)NC(=O)[C@H](Cc2ccccc2)NC(=O)CSC[C@@H](C(=O)NCC(N)=O)NC(=O)[C@H](CCCCNC(=O)N2CCN(CC(=O)O)CC2)NC(=O)[C@H](Cc2c[nH]cn2)NC(=O)[C@H](Cc2ccc(O)cc2)NC(=O)[C@H](Cc2cccc3ccccc23)NC1=O) [TGFb1_022],–,"SBE reporter % inhibition, peptide 0.062 nM [2]: 6.49%; SBE reporter % inhibition, peptide 0.185 nM [2]: 20.8%; SBE reporter % inhibition, peptide 0.56 nM [2]: 53.8%; SBE reporter % inhibition, peptide 1.7 nM [2]: 85.2%; SBE reporter % inhibition, peptide 5.0 nM [2]: 97.1%; SBE reporter % inhibition, peptide 15.0 nM [2]: 99.5%"

# Continued, in another order:
Activity of binding to TGF-β (recombinant human TGF-β1) [%],Molecule,further results
106,66 ({CH2CO}-F[Trp(7-aza)]VVNVYDD[Gly(NCH2CH2Ph)]V[1Nal]YHVCG; thioether N-16; also: HA-tag) [compound 66],–
90,56 ({CH2CO}-FWVVNVYDD[Gly(NCH2CH2Ph)]V[1Nal]YHVCG; thioether N-16; also: HA-tag) [compound 56],–
87,54 ({CH2CO}-F[1Nal]VVNV[Phe(4-guanidino)]DD[Gly(NCH2CH2Ph)]V[1Nal]YHVCG; thioether N-16; also: HA-tag) [compound 54],–
104,65 ({CH2CO}-F[1Nal]VVNV[Phe(3-guanidino)]DD[Gly(NCH2CH2Ph)]V[1Nal]YHVCG; thioether N-16; also: HA-tag) [compound 65],–
140,69 ({CH2CO}-F[1Nal]VVNV[3Pal]DD[Gly(NCH2CH2Ph)]V[1Nal]YHVCG; thioether N-16; also: HA-tag) [compound 69],–
119,68 ({CH2CO}-F[1Nal]VVNV[4Pal]DD[Gly(NCH2CH2Ph)]V[1Nal]YHVCG; thioether N-16; also: HA-tag) [compound 68],–
85,52 ({CH2CO}-F[Trp(6-aza)]VVNVYDD[Gly(NCH2CH2Ph)]V[1Nal]YHVCG; thioether N-16; also: HA-tag) [compound 52],–
